{"source": "patent US20230212268A1", "about": "(UNM RAINFOREST INNOVATIONS, published 2023)", "binders": {"B1": {"name": "EbovGPscFv13-1 (scFv)", "scFv": "MAWSHPQFEKTGSGQVQLQQSGAELVKPGASVKLSCKASGYTFTEYTIHWVKQRSGQGLEWIGWFYPGSGSIKYDEKFKDKATLTADKSSSTVYMELSRLTSEDSAVYFCARHEPYYYGSSYEGPFDYWGQGTTLTVSSGGGGSGGGGSGGGGSGGGGSSPLSVSAGEKVTMSCKSSQSLLNSGNQKNYLAWYQQKPGQPPKLLIYGASTRESGVPDRFTGSGSGTDFTLTISSVQAEDLAVYYCQNDHSYPLTFGAGTKLELKRADAAPTVSIFPPSSEQLTSGGASVVCFLNNFTHCQELQQDECS"}, "B2": {"name": "EbovGPscFv27-5 (scFv)", "scFv": "MAWSHPQFEKTGSGQVQLQQSGAELVKPGASVKSSCTATGFNIKDYYIHWVKQRTEQGLEWIGRIDPEDGETKYAPKFQGKATITADISPNTAYLQPSSLTSEDTAVYYCTRGGYYGPWYFDVWGTGTTVTVSSGGGGSGGGGSGGGGSGGGGSASLSVSVGETVTITCRASENIYSYLAWYQQKQGKSPQLLVYNAKTLAEGVPSRFSGSGSGTQFSLKINNLQPEDFGSYYCQRHYDTPYTFGGGTKLEIKRADAAPTVSIFPPSSEQLTSGGASVVCFLNNFTHCQELQQDECS"}, "B3": {"name": "EbovGPscFv16-1 (scFv)", "scFv": "MAWSHPQFEKTGSGGAELVRSGASVKLSCTASGFNIKDDYMHWVKQRPEQGLKWIGWIDPENGDTEYASKLQGKATITADTSSNTAYLQLSSLTSEDTAVYYCARPIYYYGSSHWYFDVWGTGTTVTVSSGGGGSGGGGSGGGGSGGGGSLSLPVSLGDQASISCRSSQSLVHSNGNTYLHWYLQKPGQSPKLLIYKVSNRFSGVPDRFSGSGSGTDFTLKISRVEAEDLGVYFCSQSTHVPWTFGGGTKLEVKRADAAPTVSIFPPSSEQLTSGGASVVCFLNNFTHCQELQQDECS"}, "B4": {"name": "EbovGPscFv35-2 (scFv)", "scFv": "MAWSHPQFEKTGSGDVKLQESGPGLVKPSQSLSLTCSVTGYSITSGYYWNWIRQFPGNKLEWMGYISYDGSNNYNPSLKNRISITRDTSKNQFFLKLNSVTTEDTATYYCARESPYYGSSHWYFGVWGTGTTVTVSSGGGGSGGGGSGGGGSGGGGSASLSASVGETVTITCRTSENIYSYLAWYQQKQGKSPQLLVYNAKTLAEGVPSRFSGSGSGTQFSLKINSLQPEDFGSYYCQHHYGIPPWTFGGGTKLEIKRADAAPTVSIFPPSSEQLTSGGASVVCFLNNFTHCQELQQDECS"}, "B5": {"name": "EbovGPscFv22-1 (scFv)", "scFv": "MAWSHPQFEKTGSGQVQLQQPGTELVKPGASVKLSCKASGYTFTSYWMHWVKQRPGQGLEWIGNTNPSNGGTNYNEKFKSKATLTVDKSSNTAYMQLSSLTSEDSAVYYCARSVSGNFAYWGQGTLVTVSAGGGGSGGGGSGGGGSGGGGSLSLPVSLGDQASISCRSSQSLVHSNGNTYLHWYLQKPGQSPKLLIYKVSNRFSGVPDRFSGSGSGTDFTLKISRVEAEDLGVYFCSQSTHVPWTFGGGTKLEIKRADAAPTVSIFPPSSEQLTSGGASVVCFLNNFTHCQELQQDECS"}}, "key": {"[1]": {"target": "T1, recombinant EBOV glycoprotein (EBOV (Zaire ebolavirus), UniProt Q05320 33-650)", "T1 sequence": "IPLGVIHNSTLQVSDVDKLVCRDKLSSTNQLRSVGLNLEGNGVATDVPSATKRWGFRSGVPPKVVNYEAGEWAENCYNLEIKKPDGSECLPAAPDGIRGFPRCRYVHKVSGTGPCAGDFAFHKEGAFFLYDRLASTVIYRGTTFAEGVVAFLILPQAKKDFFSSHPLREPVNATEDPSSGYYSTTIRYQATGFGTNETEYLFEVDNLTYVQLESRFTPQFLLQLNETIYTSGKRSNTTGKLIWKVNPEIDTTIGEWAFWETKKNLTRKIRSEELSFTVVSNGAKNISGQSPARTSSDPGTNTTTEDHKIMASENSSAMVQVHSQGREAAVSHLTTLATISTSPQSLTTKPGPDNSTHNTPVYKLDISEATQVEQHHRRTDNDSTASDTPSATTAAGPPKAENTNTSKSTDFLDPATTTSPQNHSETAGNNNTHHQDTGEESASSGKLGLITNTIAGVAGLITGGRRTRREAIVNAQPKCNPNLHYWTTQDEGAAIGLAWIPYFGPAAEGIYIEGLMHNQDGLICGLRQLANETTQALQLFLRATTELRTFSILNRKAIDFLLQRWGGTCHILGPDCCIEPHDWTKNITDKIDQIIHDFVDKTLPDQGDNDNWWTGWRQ", "experiment": "ELISA, GP coated"}, "[2]": {"target": "T2, recombinant SUDV glycoprotein (SUDV (Sudan ebolavirus), UniProt Q7T9D9 33-650)", "T2 sequence": "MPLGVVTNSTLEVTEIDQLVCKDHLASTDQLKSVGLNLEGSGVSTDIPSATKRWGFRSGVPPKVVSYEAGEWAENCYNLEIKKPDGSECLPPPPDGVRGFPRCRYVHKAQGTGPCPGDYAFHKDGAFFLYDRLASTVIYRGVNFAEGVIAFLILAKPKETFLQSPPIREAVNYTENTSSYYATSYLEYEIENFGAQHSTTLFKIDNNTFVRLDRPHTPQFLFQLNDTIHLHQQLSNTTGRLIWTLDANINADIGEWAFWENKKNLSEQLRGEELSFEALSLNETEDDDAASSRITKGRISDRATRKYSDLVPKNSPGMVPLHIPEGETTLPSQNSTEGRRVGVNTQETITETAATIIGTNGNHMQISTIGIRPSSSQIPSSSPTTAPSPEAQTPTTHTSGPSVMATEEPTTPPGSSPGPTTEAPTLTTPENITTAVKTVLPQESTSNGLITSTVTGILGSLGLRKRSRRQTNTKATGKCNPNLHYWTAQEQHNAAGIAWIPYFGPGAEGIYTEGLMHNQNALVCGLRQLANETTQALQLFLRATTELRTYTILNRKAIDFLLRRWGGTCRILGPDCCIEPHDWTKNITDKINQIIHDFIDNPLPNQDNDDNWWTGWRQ", "experiment": "ELISA, GP coated"}, "[3]": {"target": "T3, recombinant RESTV glycoprotein (RESTV (Reston ebolavirus), UniProt Q66799 34-651)", "T3 sequence": "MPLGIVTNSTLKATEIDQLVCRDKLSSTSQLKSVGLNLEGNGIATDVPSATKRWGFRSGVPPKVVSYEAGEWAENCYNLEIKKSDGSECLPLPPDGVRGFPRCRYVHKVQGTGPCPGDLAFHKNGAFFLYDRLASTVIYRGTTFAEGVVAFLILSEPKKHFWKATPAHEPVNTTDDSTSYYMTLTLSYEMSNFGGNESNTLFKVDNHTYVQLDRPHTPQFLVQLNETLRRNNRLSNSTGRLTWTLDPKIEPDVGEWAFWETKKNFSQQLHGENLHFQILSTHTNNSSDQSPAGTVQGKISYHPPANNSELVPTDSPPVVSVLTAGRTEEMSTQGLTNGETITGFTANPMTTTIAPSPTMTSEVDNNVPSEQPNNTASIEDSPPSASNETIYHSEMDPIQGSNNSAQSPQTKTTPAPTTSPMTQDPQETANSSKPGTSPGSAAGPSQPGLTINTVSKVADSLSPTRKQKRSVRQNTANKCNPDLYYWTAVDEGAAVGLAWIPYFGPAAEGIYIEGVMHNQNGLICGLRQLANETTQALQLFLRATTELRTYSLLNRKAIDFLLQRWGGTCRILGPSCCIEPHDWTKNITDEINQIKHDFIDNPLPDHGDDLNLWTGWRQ", "experiment": "ELISA, GP coated"}, "[4]": {"target": "T4, recombinant MARV glycoprotein (MARV (marburgvirus, Ravn), UniProt Q1PDC7 19-648)", "T4 sequence": "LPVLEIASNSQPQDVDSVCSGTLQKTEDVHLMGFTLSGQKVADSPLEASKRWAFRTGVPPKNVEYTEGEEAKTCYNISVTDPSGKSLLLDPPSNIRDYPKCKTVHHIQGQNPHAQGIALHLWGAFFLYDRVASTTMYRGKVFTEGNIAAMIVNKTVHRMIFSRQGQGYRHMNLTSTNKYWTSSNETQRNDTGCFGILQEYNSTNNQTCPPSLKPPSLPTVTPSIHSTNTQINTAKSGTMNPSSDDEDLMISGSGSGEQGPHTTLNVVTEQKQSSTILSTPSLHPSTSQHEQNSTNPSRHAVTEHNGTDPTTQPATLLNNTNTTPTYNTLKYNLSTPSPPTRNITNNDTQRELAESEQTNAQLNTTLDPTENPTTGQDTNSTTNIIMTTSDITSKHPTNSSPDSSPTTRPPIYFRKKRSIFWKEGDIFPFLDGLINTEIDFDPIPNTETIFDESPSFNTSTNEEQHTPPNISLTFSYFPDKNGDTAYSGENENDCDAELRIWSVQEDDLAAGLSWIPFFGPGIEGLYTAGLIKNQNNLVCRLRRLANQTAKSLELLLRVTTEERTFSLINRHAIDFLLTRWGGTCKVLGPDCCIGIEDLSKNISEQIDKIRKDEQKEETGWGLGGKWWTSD", "experiment": "ELISA, GP coated"}, "[5]": {"target": "T5, recombinant TAFV glycoprotein (TAFV (Tai Forest virus), UniProt Q66810 33-650)", "T5 sequence": "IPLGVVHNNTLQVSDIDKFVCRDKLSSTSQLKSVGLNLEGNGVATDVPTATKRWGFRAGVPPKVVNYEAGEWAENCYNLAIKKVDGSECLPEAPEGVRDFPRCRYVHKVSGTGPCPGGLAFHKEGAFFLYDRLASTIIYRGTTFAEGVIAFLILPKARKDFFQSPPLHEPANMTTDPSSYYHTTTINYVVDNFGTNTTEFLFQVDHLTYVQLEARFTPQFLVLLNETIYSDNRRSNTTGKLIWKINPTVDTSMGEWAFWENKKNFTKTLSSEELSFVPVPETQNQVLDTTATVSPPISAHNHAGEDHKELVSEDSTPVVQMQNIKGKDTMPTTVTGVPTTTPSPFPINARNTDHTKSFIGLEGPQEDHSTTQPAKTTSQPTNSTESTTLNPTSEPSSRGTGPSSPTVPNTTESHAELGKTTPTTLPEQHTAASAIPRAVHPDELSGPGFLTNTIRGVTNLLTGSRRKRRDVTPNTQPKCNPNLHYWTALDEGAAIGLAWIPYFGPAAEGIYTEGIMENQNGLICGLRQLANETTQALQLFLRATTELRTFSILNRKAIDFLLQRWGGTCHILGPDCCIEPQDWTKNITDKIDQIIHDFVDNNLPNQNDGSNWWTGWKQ", "experiment": "ELISA, GP coated"}, "[6]": {"target": "T1, recombinant EBOV glycoprotein", "experiment": "maximal binding from ELISA dose-response fit"}, "[7]": {"target": "T2, recombinant SUDV glycoprotein", "experiment": "maximal binding from ELISA dose-response fit"}, "[8]": {"target": "T3, recombinant RESTV glycoprotein", "experiment": "maximal binding from ELISA dose-response fit"}, "[9]": {"target": "T4, recombinant MARV glycoprotein", "experiment": "maximal binding from ELISA dose-response fit"}, "[10]": {"target": "T5, recombinant TAFV glycoprotein", "experiment": "maximal binding from ELISA dose-response fit"}, "[11]": {"target": "T5, recombinant TAFV glycoprotein"}, "[12]": {"target": "T1, recombinant EBOV glycoprotein", "experiment": "ELISA dose response, GP coated"}, "[13]": {"target": "T2, recombinant SUDV glycoprotein", "experiment": "ELISA dose response, GP coated"}, "[14]": {"target": "T3, recombinant RESTV glycoprotein", "experiment": "ELISA dose response, GP coated"}, "[15]": {"target": "T4, recombinant MARV glycoprotein", "experiment": "ELISA dose response, GP coated"}, "[16]": {"target": "T5, recombinant TAFV glycoprotein", "experiment": "ELISA dose response, GP coated"}}, "note": "Values joined by “and” are separate entries in the source; they are usually repeats but may differ in a detail not shown here. Equal values may be shown once. Read-outs that look alike come from different tables or passages of the source."}
{"binder": "B1", "values": [{"measurement": "binding result", "setting": "[1]", "result": "binds"}]}
{"binder": "B2", "values": [{"measurement": "binding result", "setting": "[2]", "result": "no binding"}, {"measurement": "binding result", "setting": "[3]", "result": "no binding"}, {"measurement": "binding result", "setting": "[4]", "result": "no binding"}, {"measurement": "binding result", "setting": "[5]", "result": "no binding"}]}
{"binder": "B3", "values": [{"measurement": "binding result", "setting": "[1]", "result": "binds"}]}
{"binder": "B4", "values": [{"measurement": "binding result", "setting": "[1]", "result": "binds"}]}
{"binder": "B5", "values": [{"measurement": "Bmax signal", "setting": "[6]", "result": 370000, "unit": "relative absorbance units"}, {"measurement": "Bmax signal", "setting": "[7]", "result": 280000, "unit": "relative absorbance units"}, {"measurement": "Bmax signal", "setting": "[8]", "result": 320000, "unit": "relative absorbance units"}, {"measurement": "Bmax signal", "setting": "[9]", "result": 250000, "unit": "relative absorbance units"}, {"measurement": "Bmax signal", "setting": "[10]", "result": 270000, "unit": "relative absorbance units"}, {"measurement": "EC50", "setting": "[11]", "result": 12, "unit": "µg/mL"}, {"measurement": "EC50", "setting": "[12]", "result": "< 12 µg/mL and 7.36 µg/mL"}, {"measurement": "EC50", "setting": "[13]", "result": "< 12 µg/mL and 7.94 µg/mL"}, {"measurement": "EC50", "setting": "[14]", "result": "9 µg/mL and < 12 µg/mL"}, {"measurement": "EC50", "setting": "[15]", "result": "< 12 µg/mL and 6.58 µg/mL"}, {"measurement": "EC50", "setting": "[16]", "result": "11.6 µg/mL and < 12 µg/mL"}]}
